This assay concerns the target mitoribosome large subunit (mtLSU, 39S) (human (endogenous in HEK293T and 143B)). Nature of the assay: co-sedimentation.

For “MTG1 (human mitochondrial ribosome assembly GTPase), endogenous (natural protein)”, the percent of total MTG1 co-sedimenting with mtLSU markers is 10%.

The values above are taken from paper PMC6144824.
